31 molecules from paper PMC6632053, “Incorporation of Putative Helix-Breaking Amino Acids in the Design of Novel Stapled Peptides: Exploring Biophysical and Cellular Permeability Properties” (Molecules, 2019) can be followed below.

Assay [1] addresses T1, human Mdm2 (1–125) (human).
T1 construct: Mdm2, human, residues 1-125; the stretch after the TEV site ENLYFQG of the fusion protein; No cleavage of the tags is described, so it is open whether the fusion or cleaved Mdm2 stood in the FP and ITC assays; also called purified recombinant human Mdm2 protein (amino acids 1–125); source: E. coli BL21 (DE3) Rosetta T1R, purified (Ni-NTA, gel filtration)
The assay can be described thus: fluorescence polarisation; competition: unlabeled peptide titrated against the complex of 250 nM Mdm2 (1–125) and 50 nM FAM-labeled 12/1 peptide; apparent Kd from the tracer's Kd of […] nM; PBS pH 7.4, 0.1% Tween 20; triplicate. Conditions: both partners purified.

In assay [2] the target is T1, human Mdm2 (1–125). The description is as above. As to conditions: both partners purified. The source holds these as a separate data set.
Assay [3] deals with T1, human Mdm2 (1–125). Description: cell-based or functional assay.
Assay [4] concerns the target T1, human Mdm2 (1–125). Description: cell-based or functional assay. This is another data set of the same source.
The target of assay [5] is T1, human Mdm2 (1–125). The assay can be described thus: ITC; 100–200 µM peptide titrated into 20 µM Mdm2 (1–125), 40 injections of 1 µL (reverse titration for insoluble peptides); 1× PBS pH 7.2, 3% DMSO, 0.001% Tween-20; duplicates. As to conditions: both partners purified.

Bridge positions count the residues as written; N and C are the ends. Square brackets hold non-standard residues; d marks the D form. Primed or numbered codes have the meaning given here. Lys(N3) = [N-]=[N+]=NCCCC[C@H](N)C(=O)O; NMeQ = CN[C@@H](CCC(N)=O)C(=O)O; R8 = C=CCCCCCC[C@@](C)(N)C(=O)O; dCba = N[C@H](CC1CCC1)C(=O)O; S5 = C=CCCC[C@](C)(N)C(=O)O; NMeA = CN[C@@H](C)C(=O)O; Cba′ = not defined here; Aib = CC(C)(N)C(=O)O; βAla = NCCC(=O)O

T1 sequence (chain, as listed by the source): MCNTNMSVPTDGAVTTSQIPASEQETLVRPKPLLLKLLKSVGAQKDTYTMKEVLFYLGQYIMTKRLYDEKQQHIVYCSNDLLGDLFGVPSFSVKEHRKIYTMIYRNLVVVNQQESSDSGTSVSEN

B1: MP-081 (peptide)
chain: Ac-[Lys(N3)][βAla]LTF[R8]EYWAQ[Cba′][S5]SAA-NH2
modifications: staple 6-13; reading uncertain
Take B1: in the assay with human Mdm2 (1–125) [1], the Kd was 19 nM.

B2: MP-292 E5(D-Glu) (peptide)
chain: Ac-LTF[R8][dE]YWQL[Cba′][S5]SAA-NH2
modifications: staple 4-11; reading uncertain
For B2, the Kd with human Mdm2 (1–125) [2] was 32 nM.

B3: MP-292 A14(D-Ala) (peptide)
chain: Ac-LTF[R8]EYWQL[Cba′][S5]SA[dA]-NH2
modifications: staple 4-11; reading uncertain
Regarding B3, the Kd with human Mdm2 (1–125) [2] was determined as 18 nM.

B4: MP-081 A8(N-methyl L-Ala) (peptide)
chain: Ac-[Lys(N3)][βAla]LTF[R8]EYW[NMeA]Q[Cba′][S5]SAA-NH2
modifications: staple 6-13; reading uncertain
As to B4, the Kd in the assay with human Mdm2 (1–125) [1] was found to be 671 nM.

B5: MP-081 Q9(N-methyl L-Gln) (peptide)
chain: Ac-[Lys(N3)][βAla]LTF[R8]EYWA[NMeQ][Cba′][S5]SAA-NH2
modifications: staple 6-13; reading uncertain
Consider B5, for which the Kd with human Mdm2 (1–125) [1] came to 211 nM.

B6: Linear E5(D-Glu) (peptide)
chain: Ac-LTF[Aib][dE]YWQL[Cba′][Aib]SAA-NH2
modifications: reading uncertain
Regarding B6, the Kd with human Mdm2 (1–125) [2] was 135 nM.

B7: MP-292 (peptide)
chain: Ac-LTF[R8]EYWQL[Cba′][S5]SAA-NH2
modifications: staple 4-11; reading uncertain
Regarding B7, in the assay with human Mdm2 (1–125) [3], the “EC50, p53 responsive β-lactamase reporter in HCT116 cells, 2% serum (data not shown)” value was found to be 700 nM and the “EC50, p53 responsive β-lactamase reporter in HCT116 cells, 10% serum (data not shown)” value stood at 4200 nM. The “EC50, p53 responsive β-lactamase reporter in HCT116 cells (column Cellular)” value with human Mdm2 (1–125) [4] came to 540 nM. Besides, the “stoichiometry N” value with human Mdm2 (1–125) [5] stood at 1. Besides, the Kd in the assay with human Mdm2 (1–125) [2] was determined as 18.6 nM.

B8: MP-081 Q9P (peptide)
chain: Ac-[Lys(N3)][βAla]LTF[R8]EYWAP[Cba′][S5]SAA-NH2
modifications: staple 6-13; reading uncertain
As to B8, the Kd with human Mdm2 (1–125) [1] came to 77.1 nM.

B9: Linear Parent (MP-189) (peptide)
chain: Ac-LTF[Aib]EYWQL[Cba′][Aib]SAA-NH2
modifications: reading uncertain
For B9, the Kd with human Mdm2 (1–125) [2] turned out to be 43.1 nM.

B10: MP-292 W7A (peptide)
chain: Ac-LTF[R8]EYAQL[Cba′][S5]SAA-NH2
modifications: staple 4-11; reading uncertain
As to B10, the “EC50, p53 responsive β-lactamase reporter in HCT116 cells (column Cellular)” value in the assay with human Mdm2 (1–125) [4] turned out to be 8800 nM. The Kd in the assay with human Mdm2 (1–125) [2] amounted to 5090 nM.

B11: MP-292 Y6 (D-Tyr) (peptide)
chain: Ac-LTF[R8]E[dY]WQL[Cba′][S5]SAA-NH2
modifications: staple 4-11; reading uncertain
Take B11: in the assay with human Mdm2 (1–125) [2], the Kd is 286 nM.

B12: MP-292 L9A (peptide)
chain: Ac-LTF[R8]EYWQA[Cba′][S5]SAA-NH2
modifications: staple 4-11; reading uncertain
Turning to B12, in the assay with human Mdm2 (1–125) [2], the Kd stood at 12 nM.

B13: MP-081 L1G (peptide)
chain: Ac-[Lys(N3)][βAla]GTF[R8]EYWAQ[Cba′][S5]SAA-NH2
modifications: staple 6-13; reading uncertain
As for B13, the Kd with human Mdm2 (1–125) [1] turned out to be 22.1 nM.

B14: MP-292 T2(D-Thr) (peptide)
chain: Ac-L[dT]F[R8]EYWQL[Cba′][S5]SAA-NH2
modifications: staple 4-11; reading uncertain
Consider B14, for which the Kd with human Mdm2 (1–125) [2] came out at 136 nM.

B15: MP-081 E5G (peptide)
chain: Ac-[Lys(N3)][βAla]LTF[R8]GYWAQ[Cba′][S5]SAA-NH2
modifications: staple 6-13; reading uncertain
Turning to B15, in the assay with human Mdm2 (1–125) [1], the Kd worked out at 61.8 nM.

B16: MP-081 L1P (peptide)
chain: Ac-[Lys(N3)][βAla]PTF[R8]EYWAQ[Cba′][S5]SAA-NH2
modifications: staple 6-13; reading uncertain
For B16, the Kd with human Mdm2 (1–125) [1] turned out to be 21.9 nM.

B17: MP-292 S12A (peptide)
chain: Ac-LTF[R8]EYWQL[Cba′][S5]AAA-NH2
modifications: staple 4-11; reading uncertain
As for B17, the Kd with human Mdm2 (1–125) [2] is 20.4 nM.

B18: MP-292 Q8(D-Gln) (peptide)
chain: Ac-LTF[R8]EYW[dQ]L[Cba′][S5]SAA-NH2
modifications: staple 4-11; reading uncertain
Regarding B18, the Kd with human Mdm2 (1–125) [2] came to 22 nM.

B19: MP-292 Y6A (peptide)
chain: Ac-LTF[R8]EAWQL[Cba′][S5]SAA-NH2
modifications: staple 4-11; reading uncertain
As for B19, in the assay with human Mdm2 (1–125) [2], the Kd is 38.9 nM.

B20: MP-292 L9(D-Leu) (peptide)
chain: Ac-LTF[R8]EYWQ[dL][Cba′][S5]SAA-NH2
modifications: staple 4-11; reading uncertain
Turning to B20, the Kd in the assay with human Mdm2 (1–125) [2] turned out to be 30 nM.

B21: Linear L1(D-Leu) (peptide)
chain: Ac-[dL]TF[Aib]EYWQL[Cba′][Aib]SAA-NH2
modifications: reading uncertain
B21: the Kd with human Mdm2 (1–125) [2] came to 277 nM.

B22: MP-292 L1(D-Leu) (peptide)
chain: Ac-[dL]TF[R8]EYWQL[Cba′][S5]SAA-NH2
modifications: staple 4-11; reading uncertain
B22: the Kd with human Mdm2 (1–125) [2] came out at 31 nM.

B23: MP-292 F3(D-Phe) (peptide)
chain: Ac-LT[dF][R8]EYWQL[Cba′][S5]SAA-NH2
modifications: staple 4-11; reading uncertain
For the molecule B23, the Kd with human Mdm2 (1–125) [2] was 6480 nM.

B24: W6(D-Trp) (MP-384) (peptide)
chain: Ac-LTF[R8]EY[dW]QL[Cba′][S5]SAA-NH2
modifications: staple 4-11; reading uncertain
In the case of B24, the Kd in the assay with human Mdm2 (1–125) [2] was determined as 30 nM.

B25: MP-292 Cba10(D-Cba) (peptide)
chain: Ac-LTF[R8]EYWQL[dCba][S5]SAA-NH2
modifications: staple 4-11
Take B25: the Kd with human Mdm2 (1–125) [2] was 1650 nM.

B26: Linear L9(D-Leu) (peptide)
chain: Ac-LTF[Aib]EYWQ[dL][Cba′][Aib]SAA-NH2
modifications: reading uncertain
As for B26, the Kd in the assay with human Mdm2 (1–125) [2] was found to be 88 nM.

B27: MP-081 Q9G (peptide)
chain: Ac-[Lys(N3)][βAla]LTF[R8]EYWAG[Cba′][S5]SAA-NH2
modifications: staple 6-13; reading uncertain
For the molecule B27, the Kd with human Mdm2 (1–125) [1] was 42 nM.

B28: MP-292 A13(D-Ala) (peptide)
chain: Ac-LTF[R8]EYWQL[Cba′][S5]S[dA]A-NH2
modifications: staple 4-11; reading uncertain
For B28, the Kd in the assay with human Mdm2 (1–125) [2] amounted to 17 nM.

B29: MP-081 A13(N-methyl L-Ala) (peptide)
chain: Ac-[Lys(N3)][βAla]LTF[R8]EYWAQ[Cba′][S5]S[NMeA]A-NH2
modifications: staple 6-13; reading uncertain
As to B29, the Kd in the assay with human Mdm2 (1–125) [1] amounted to 10 nM.

B30: MP-292 Q8A (peptide)
chain: Ac-LTF[R8]EYWAL[Cba′][S5]SAA-NH2
modifications: staple 4-11; reading uncertain
For B30, in the assay with human Mdm2 (1–125) [2], the Kd is 26.5 nM.

B31: MP-292 S12(D-Ser) (peptide)
chain: Ac-LTF[R8]EYWQL[Cba′][S5][dS]AA-NH2
modifications: staple 4-11; reading uncertain
For B31, in the assay with human Mdm2 (1–125) [2], the Kd came to 8.6 nM.
